This is an account of results in paper PMC7979726 (Nature Communications, 2021).

For this assay, the target named is T1, Mcm3 (S. cerevisiae, UniProt P24279 1-971).
T1 construct: Mcm3, S. cerevisiae; native protein without extra amino acids after SUMO cleavage; source: Champion pET SUMO Protein Expression System (Invitrogen); purified individually; protocols in Supplementary Data; not shown: SUMO, N-terminal, cleaved
In words: SEC; individually purified subunits mixed and the complex (Mcm5/3/7, Mcm2/6/4 or MCM-Cdt1) isolated by gel filtration. As to conditions: both partners purified. (In general: In gel filtration, larger molecules generally elute earlier.)

T1 sequence (P24279 whole entry): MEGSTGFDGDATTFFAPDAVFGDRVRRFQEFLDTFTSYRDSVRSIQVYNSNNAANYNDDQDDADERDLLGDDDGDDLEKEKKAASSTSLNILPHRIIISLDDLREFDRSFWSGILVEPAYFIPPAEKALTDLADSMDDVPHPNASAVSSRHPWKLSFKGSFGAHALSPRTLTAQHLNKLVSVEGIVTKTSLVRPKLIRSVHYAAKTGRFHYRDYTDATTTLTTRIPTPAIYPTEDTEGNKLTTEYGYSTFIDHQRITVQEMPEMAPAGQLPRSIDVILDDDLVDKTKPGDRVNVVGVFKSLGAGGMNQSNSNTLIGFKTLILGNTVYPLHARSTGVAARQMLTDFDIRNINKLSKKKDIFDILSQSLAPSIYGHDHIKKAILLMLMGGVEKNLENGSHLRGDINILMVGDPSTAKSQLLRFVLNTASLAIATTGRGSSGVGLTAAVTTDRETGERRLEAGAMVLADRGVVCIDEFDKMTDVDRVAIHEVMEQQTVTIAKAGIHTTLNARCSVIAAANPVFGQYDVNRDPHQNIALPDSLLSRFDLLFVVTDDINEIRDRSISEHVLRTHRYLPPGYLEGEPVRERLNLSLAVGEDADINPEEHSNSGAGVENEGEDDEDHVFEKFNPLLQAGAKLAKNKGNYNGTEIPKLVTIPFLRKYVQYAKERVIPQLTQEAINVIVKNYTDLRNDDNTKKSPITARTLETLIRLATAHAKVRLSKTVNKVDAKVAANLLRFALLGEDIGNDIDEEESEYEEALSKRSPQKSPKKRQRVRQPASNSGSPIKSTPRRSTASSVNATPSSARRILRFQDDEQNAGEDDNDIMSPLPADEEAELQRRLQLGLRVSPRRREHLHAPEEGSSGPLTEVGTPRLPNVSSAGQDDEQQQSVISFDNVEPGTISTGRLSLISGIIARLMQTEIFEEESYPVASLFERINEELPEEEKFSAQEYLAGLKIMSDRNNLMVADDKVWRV

B1: Mcm7 (natural protein, S. cerevisiae, UniProt P38132 1-845, looked up)
chain: MSAALPSIQLPVDYNNLFNEITDFLVTFKQDTLSSDATRNENEDENLDAENIEQHLLEKGPKYMAMLQKVANRELNSVIIDLDDILQYQNEKFLQGTQADDLVSAIQQNANHFTELFCRAIDNNMPLPTKEIDYKDDVLDVILNQRRLRNERMLSDRTNEIRSENLMDTTMDPPSSMNDALREVVEDETELFPPNLTRRYFLYFKPLSQNCARRYRKKAISSKPLSVRQIKGDFLGQLITVRGIITRVSDVKPAVEVIAYTCDQCGYEVFQEVNSRTFTPLSECTSEECSQNQTKGQLFMSTRASKFSAFQECKIQELSQQVPVGHIPRSLNIHVNGTLVRSLSPGDIVDVTGIFLPAPYTGFKALKAGLLTETYLEAQFVRQHKKKFASFSLTSDVEERVMELITSGDVYNRLAKSIAPEIYGNLDVKKALLLLLVGGVDKRVGDGMKIRGDINVCLMGDPGVAKSQLLKAICKISPRGVYTTGKGSSGVGLTAAVMKDPVTDEMILEGGALVLADNGICCIDEFDKMDESDRTAIHEVMEQQTISISKAGINTTLNARTSILAAANPLYGRYNPRLSPLDNINLPAALLSRFDILFLMLDIPSRDDDEKLAEHVTYVHMHNKQPDLDFTPVEPSKMREYIAYAKTKRPVMSEAVNDYVVQAYIRLRQDSKREMDSKFSFGQATPRTLLGIIRLSQALAKLRLADMVDIDDVEEALRLVRVSKESLYQETNKSKEDESPTTKIFTIIKKMLQETGKNTLSYENIVKTVRLRGFTMLQLSNCIQEYSYLNVWHLINEGNTLKFVDDGTMDTDQEDSLVSTPKLAPQTTASANVSAQDSDIDLQDA
notes: Mcm7, S. cerevisiae; native protein without extra amino acids after SUMO cleavage; source: Champion pET SUMO Protein Expression System (Invitrogen); purified individually; protocols in Supplementary Data; not shown: SUMO, N-terminal, cleaved
B1: the binding result was “binds”.
